The results in this text go back to paper PMC6134095.

One may read the Kd as a measure of binding affinity in units of concentration.

Assay [1] deals with FtsQ (58–276), periplasmic domain of E. coli FtsQ (Escherichia coli strain K-12) (UniProt P06136). Briefly: SPR; FtsQ (58–276) immobilised on a CM5 chip by amide coupling (~1,000 RU); Biacore T200, 20°C; 10 mM HEPES pH 7.4, 150 mM NaCl, 0.4% glycerol; analytes injected 120 s, 600 s dissociation, 1:2 dilution series, triplicate. Background: In SPR one partner is held on a chip, and binding of the other changes the refractive index at the surface.
Chain of FtsQ (58–276), periplasmic domain of E. coli FtsQ (Escherichia coli strain K-12) (P06136 58-276): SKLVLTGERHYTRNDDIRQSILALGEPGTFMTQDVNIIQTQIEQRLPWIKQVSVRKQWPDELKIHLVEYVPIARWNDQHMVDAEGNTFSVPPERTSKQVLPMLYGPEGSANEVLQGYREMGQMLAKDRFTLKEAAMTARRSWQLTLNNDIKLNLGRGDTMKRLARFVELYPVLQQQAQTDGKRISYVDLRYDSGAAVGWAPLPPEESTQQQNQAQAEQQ

The target of assay [2] is FITC-labeled FtsB 64–87 peptide (E. coli) (UniProt P0A6S5). Briefly: fluorescence polarisation; 10 nM FITC-labeled FtsB 64–87 peptide, FtsQ in threefold dilutions from 800 µM to 0.5 nM; 10 mM HEPES pH 7.4, 150 mM NaCl, 0.1% Tween 20; 1 h at room temperature. (In general: Fluorescence polarisation rises when a labelled molecule tumbles more slowly, as on binding a larger partner.)

Chain of FtsN (58–320) plus FtsB (22–103), bound together (A7ZQJ2 22-103): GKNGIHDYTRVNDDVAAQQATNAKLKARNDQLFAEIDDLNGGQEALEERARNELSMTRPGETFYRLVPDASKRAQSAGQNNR
Chain of FtsN (58–320) plus FtsB (22–103), bound together (P29131 57-319): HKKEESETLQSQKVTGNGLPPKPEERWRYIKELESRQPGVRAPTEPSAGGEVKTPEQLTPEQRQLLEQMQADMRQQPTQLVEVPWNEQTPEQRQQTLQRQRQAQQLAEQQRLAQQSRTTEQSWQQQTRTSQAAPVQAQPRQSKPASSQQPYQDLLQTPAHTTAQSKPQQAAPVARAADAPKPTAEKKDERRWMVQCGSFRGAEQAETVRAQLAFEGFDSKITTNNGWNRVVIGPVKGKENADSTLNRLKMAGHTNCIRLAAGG
Chain of FtsN (57–319), periplasmic domain of E. coli FtsN (P29131 57-319): as above

In assay [1], “FtsB F84A (from UniProt P0A6S5 22-103) (domain or fragment)” had a fold reduction of binding against wild-type FtsB of 10 fold. On the same count and under the same terms, the figure for “FtsB R72A (from UniProt P0A6S5 22-103) (domain or fragment)” is 10 fold.

As to “FtsN (57–319), periplasmic domain of E. coli FtsN (from UniProt P29131 57-319) (domain or fragment)”, the Kd in assay [1] is 2500 nM. Regarding “FtsN (58–320) plus FtsB (22–103), bound together (from UniProt P0A6S5 22-103; P29131 57-319)”, the Kd of FtsB and FtsN bound together in assay [1] amounted to 120 nM.

For “FtsQ (58–276), periplasmic domain of E. coli FtsQ (from UniProt P06136 58-276) (domain or fragment)”, in assay [2], the Kd is 9500 nM.
